According to the supplement of paper PMC12636428:

System: Saccharomyces cerevisiae
Assay: transcriptional activation domain activity (GFP:mCherry ratio, weighted mean of sorted bins, harmonized to initial dataset scale) (arbitrary fluorescence ratio units); higher = stronger transcriptional activation
Conditions: beta-estradiol 1 µM; induction time 4 h
Procedure, shortened: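 Each value is an activation activity: the read-weighted mean of bin median fluorescence, averaged across barcodes, then mapped linearly to the initial dataset scale. The tiles, fused to an estradiol-inducible synthetic transcription factor, sat at the yeast URA3 locus in GFP-reporter diploids. Cells spent 4 hours at 30 °C in SC with 1 uM beta-estradiol before sorting into 8 GFP:mCherry bins, and tiles below 50 reads were removed.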

| Sequence | transcriptional activation domain activity |
| --- | --- |
| AGGGNHPPPPPPPPPPAGRSGGAPPPPPPPPPPPPGAGGGNHPPPPPPPPPPP | 23500 |
| PKPKAKTPSKAKKKAEPIPKAKAAPKPKEKTTPNTPARRGRPRKEKAAAETPM | 37500 |
| LLFFFSFFFVCFKYFPPFFFSSFLSFSFYCLSILTYPIHYPPPVFGISGSFFV | 51800 |
| IIPKIYFYGGYKGLLLFISSLSLTLLCYILITRPILSFLIVSDIVLNVIINIY | 63400 |
| FNEFYPSGWPPSYFIVILRMLFLVCGLFFLWSFFFVVFFFCGLLSLLFFILVV | 28500 |
| ELPKKCDDKYWEHGDNYQEAIRQLPTKPSLVEFFNCLITLNRILALTLRMLYS | 55200 |
| DEDATNENMSGPAMDVDEARNFINARLDLLKRTLHPNPIVVTAQLLKAVWAAY | 36200 |
| NDLFAWPWGNPIDLDVAIALQETSIGCYNKRTTVFYANSCNTLLSLLVNKFLL | 33300 |
| GMEGERVKESIRRVQHQGADELYRRSQEKNGKGLRLSQSKTRSRGETPLQLIA | 63100 |
| LCVDVWDGFFLSPLNLVAISFLIFLPFHCWVINAPLSILCLTSIMGFPSFLFF | 70200 |
| GHDGPQQQQQRKKPAAAAAAGKGKEKGKGKGKGQVVVVASKPAKKAASAAAAA | 28700 |
| FHRGGSNGSNSNNNNNAGDLQHHQHAGINKTTANVSEKYHWNRIKGTVTDVIE | 28300 |
| MDISFFMLFVFDDFFLYSYFFFPSPRPLSNDATLIHIVCILFIILVGLTIVLL | 36800 |
| EEEPATKKQKTDDAAATTNGDAKPKGKPGRPKKAESEKKSPAKKRDPKKAATA | 33700 |
| MTEREPDNEQQPRKRIAVACGRCRKRKIRCSGDPGNGEPCTNCRNANAEPCQF | 38700 |
| TDPKPITDNGKNVPLDEIESLEIPNLDLTTTMNGYDVNLLMQNLNDMVNMKLH | 91600 |
| LVGLDGRAKINCHFFAYVAFGSASLLVVFHVAFLINVSDVVLLLVMLVGLLRL | 31900 |
| AGEKADAPNGEGAGEGNRRRPSGRGRGRGRGGRGARNGRDGAQEEGAEAAAAP | 14300 |
| MRWFFLLFWVFLSFFLSLQFFSILSFVCGSLACSISLLCRFSLRGAGFCWLGG | 47600 |
| RPAPAKSKARSSRKAVVEEPEIPQAQEEEEDVKPVIRGRKKRVSIAEPEKPKR | 35300 |
| MKLPWDDSVTIFLVNYVDFLLLFPFVLLMEFIFDDLPWLSLYVLKHYYNILYM | 38600 |
| VCLSLYIITCVFGWLLYFITATLSYYYVFDHDYMKHPKFLKNQIRLEINCAAS | 76600 |
| MPFRNCFACIICCSWLLYLDVLLILSMYSIYFMGGFARYLFWFIYWFFGIMEL | 44800 |
| GAAASTPAAPQKPAGGLFGGAGLGAASKPADAAASSSSSGLFGAKPAESAPAA | 30900 |
| IRRHFNRKYHQCLLVVIVLGVYLAIGLNWGRFYLVCWVLLHFCIVILGPLYFL | 53400 |

| Sequence | transcriptional activation domain activity |
| --- | --- |
| YILARYSIFFLYYLQFSRGYIPEYLNPTLPSYEEIESWLFLKTVWFQVLIWTV | 65500 |
| LLLLYGLTWAFNLIACMLTSTNNGNMVSCILTNFNCIIVYTITKIILYLYFVE | 43200 |
| MNFTDIYFSDIIYVLLLYLLILFTFFLDLLISFTFVTLYSILFLFVLYSFILN | 70500 |
| EGDDEAPVQPKGRPRKSKAAAAESADEEPRPKAVRSRPSRARKSKPVASDSDV | < 6570 |
| MILTSHLSFILFLFLFLFPFSFSSFLPFYLHYLFILPSILIFPSPPFLPSLFL | 51200 |
| EEEDGQSEPDSARAPRKAKSKTRAATDGEDESEARSKPKASRKGRRKVEASDA | 24000 |
| KIHLVNLLQISVLFVHRFIFGLVPLFEITTCAFFPLLISLWHLDYILFYVVMF | 53800 |
| EAAHVNGLGIADLDVLLGLNGRSSDVDMTTTLPSLKPPLQNGEIKADSIDNLD | 53300 |
| AVPGEVTEAEANGEAKAEGAAATTDEAAKPKKKKKSKSRKAKKTEDGTAPEEG | 37900 |
| FLLTVYHIELLRNKSGDCSFMLRYFMNQGVNNSSLSTCMEHVAEAVVSTFINE | 30600 |
| AAPVAEAAPATEAAPASEPSTEAEVPKEEKTEDKKEEKAPKSPKIGRRLSSRV | 17000 |
| MTFLPFSLFAFLFRCLLFFLAIFRLRYALFLFLFFSFLYLYPFYLHILHIVAY | 52600 |
| AWAVQTKVYLNYLWHTTNKFTTGFKVIYIQCHPDFVTWEQMKIMAMFLCCLCF | 55800 |
| WGLIIGLVGLNAALIYIGWRYYEVYYFLLVLLSSNTILQTFMCFCIMLHWFCT | 40400 |
| FFFVNGMWYNMAYIFGSWKLGWWELGAKIFVFQEVYETLLYLLTPFILPISFY | 48600 |
| WRILLIVHLFGPFSLVDELLLPFKSSTSIFLFGILYIYCLFVLFLAYMILSIL | 32600 |
| PRVLHGLELICHIAYLIIILHFIFDWRIDGHMPEWRFYGAREYILFIYSLSIL | 31100 |
| EQVAPKFWKHGLFWAMCNEGMWLKELEFYYMINYYFKYLELLDTVFLALKKKP | 40200 |
| YVVQYKNSLIGKHFKMLQQLGVFHLHDLCTPLLFDLWKATGELGALLWYPEIK | 33300 |
| MHNSRSSFLVSCFFIYFFSLLVHCEGVLILTPIPFQNHLVSILECFLFYLFLF | 51600 |
| IRLELGIIEDFFGLTLCMSKYLLYHYVISLKLSACFFAVHGYAPNGLDYPWVL | 55000 |
| EPEQVEAVVEVEEKQEEVKPVEEEIKVEQPVVEQQQEEPTPVVSQVPASTPLP | < 6570 |
| EGKPVAAEGVKDSWDASSDEEGSNPAPAPAPAAKAKPSQKANGTHVPISESQT | 40500 |
| HNTHKELSEQAVIDSFHVLCFSVGTIKNKPMIVYLVRQGPAIWLTMCTLNDLN | 27200 |
| EAVESKPVKKAKGKPKKAIETPEPDAEESTGAEAVESKPVKRAKGKSKKAIKT | 53100 |

| Sequence | transcriptional activation domain activity |
| --- | --- |
| IRPSTPAATRSTSPPRPRPPRASRSPRPRRTRGRRSSKLRRKATSPPPATAPS | 38200 |
| TLRVSNLLCWFLLCLTSVPGLGIVYYTYFLLPDTPYCLWALCLYTKSFIAPLM | 63000 |
| YAASSASPAPPRKYPPARKASPSPSPTPPRTRKSSASALRRPASTPTPPAPSP | 23200 |
| AAAASSTPCLRRRPAPAPATARSSAARPAGCSCGGRSRRCGGRRTPSPSRRGP | 20300 |
| EPFHLQHQSNHVYGKIVIGDSLMDEWFIVYLLRELSLWLDHLVIRYIYRRLMI | 59900 |
| SSSSSSSSESGSESDSGSDDGSASGSGDNSSTSSESESESDSGSEVDEKNNKN | 33900 |
| MVTISTDWFGWFVYLRFSGHLGVNCFYFIIRFFLFWVAFQLHVCIFSLPLVSC | 51400 |
| MFVFHMFVFYFVCLFFICLSFILYALFFMSYFYFLLVYFDICFLFLYLFLIFI | 15300 |
| MGGFFLFFFFFSFVDSFGVVYDMDMRSGGVFFFLPFLSTLFFLLLLGSVLFSC | 71600 |
| KKQEERKEGYRRKVEENKEKREGREKREKDEFWRREGKKRRYQEGDGAGAGAG | 38100 |
| MRFSSLLFLFCLFHFPLFFFFFSSFFNFCLPILFLPNLFSPFLFPFSPHLFFF | 51900 |
| SLFLLVVSINDVQTINFFYFVTDYGSWLEIGTSISHFCIAELFIIFTICLFWL | 37800 |
| TKCSLDKMLPMLLPLKDALVHMDLMEYYFQTGYLYYLAFSCFILLLYPPFMVL | 53800 |
| ETVLKDLKSNQNIDTTVQKLFANCLFYARRIALIHPNLTSIKALLLLMVALEC | 81600 |
| DDENEGSDTEAEAPAEKPKRGRKKAAPKEGADGEEEAPAAKKAAPRGRGKKAA | 6980 |
| NLLYQLGVFVARSSTPFIRLHNLYLPSCLQILNLLLLVSQSLYWWIPSVYLVF | 76500 |
| DETNIHFDSMWCNDEYMKLKDIVDISTPFLPNNSQIFSLQESEYPNPSASTRG | 136000 |
| GCWGETWWYTMQFGALLAEGAAQHWLGLLEQKVLPWSRYGMMQKGLRRLFGYV | 75600 |
| STPAAKPTPEPGQQPRKRGRPRIIRDDPPEGGGPPAAKKAKRGRKPKVVAPPA | 27400 |
| SSGGGSTSESESESESEIEEDESKGEREGEGEKEKKKKKKKKGEEKAQHARRD | 31700 |
| CVGFANYCHFIRFLVYVGLGAIYLMVLLGCRLSSILYHPASATEWVLLGLNLF | 63000 |
| DQCDITPEMRKEYNIDGADKANNPELAMDWLLVHLLFRTLQLLPNMFRAWLFN | 56200 |
| IIEEQSGEDDDLPGHKKQRKESLAELLASEPADGTSPRRKSGQIKRTVPAVVL | < 6570 |
| TDDAKAKRKKEKKEKKEKSRSKKSADEGSDNEDGTSEERSKKRKSKSKSKSRS | 30700 |
